# Results taken from the RNAGym collection of RNA variant scans (doi:10.1073/pnas.2313332121).
# B1: TPR t1 (parent)
# chain: GACCAAUCUGCCCUCAGAGCUCGAGAACAUCUUCGGAUGCAGAGGAGGCAGGCUUCGGUGGCGCGAUAGCGCCAACGUCCUCAACCUCCAAUGCAUCCCACCACAUGAUGAUGCCUGAAGAGCCUUGGUUUUUUG
# Variants of: B1
# Assay: polymerase ribozyme fitness, log enrichment relative to wild type (log ratio); higher = more active; in vitro selection for triplet polymerase activity
# How it was run: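 PCR was used to build mutant libraries for each subunit of a heterodimeric triplet polymerase ribozyme, which were then transcribed. A single in vitro selection round, in triplicate, used a frozen incubation at −7 °C and recovered extended constructs by gel excision, streptavidin beads and RT-PCR. Fitness is the logarithm of genotype enrichment relative to wild-type enrichment, averaged over replicates with inverse-variance weights. The logarithm is base 2, and after Illumina sequencing only genotypes with ≥10 input reads and ≥1 read per output were kept.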
row,Variant,polymerase ribozyme fitness (log ratio)
1,GACCAAUCUGCCCUCAGAGCUCGAGAACACCUUCGGAUGCAGAAGAGGCAGGGUUCGGUGGCGCGAUAGCGCCAACGUCCUCAACCUCCAAUGCAUCCCACCACAUGAUGAUGCCUGAAGAGCCUUGGUUUUUUG [U30C G44A C53G],-5.41
2,GACCAAUCUGCCCUCAGAGCUCGAGAACACCUUCGGAUGCAGAGGAGGCAGGCUUCGGUGGCGCGAUAGCGUCAACGUCCUCAACCACCAAUGCAUCCCACCACAUGAUGAAGCCUGAAGAGCCUUGGUUUUUUG [U30C C72U U87A U112A],-2.41
3,GACCAAUCUGCCCUCAGAGCUCGAGAACACCUUCGGAUGCAGUGGAGGCAGGCUUCGGUGGCGCGAUAGCGCCAACGUCCUCAACCUCCAAUGCAUCCCACCACAUGAUGAUGCCUGAAGAGCCUUGGUUUUUUG [U30C A43U],-4.23
4,GACCAAUCUGCCCUCAGAGCUCGAGAACACCUUCGGAUGCGGAGGAGGCAGGCUUCGGUGGCGCGAUAGCGCCAACGACCUCAACCUCCAGUGCAUCCCACCACAUGGUGAUGCCUGAAGAGCCUUGGUUUUUUG [U30C A41G U78A A91G A108G],-2.61
5,GACCAAUCUGCCCUCAGAGCUCGAGAACACCUUCGGAUGCAGAGGAGGCAGGCUUCGGUGGCGCGAUAGUGCCAACGUCCUCAACCUCCAAUGCAUCCCACCACAUGAUGAUCCCUGAAGAGCCUUGGUUUUUUG [U30C C70U G113C],-3.79
6,GACCAAUCUGCCCUCAGAGCUCGAGAACAACUUCGGAUGCAGAGGAGGCAGUCUUCGGUAGCGCGAUAGCGCCAACGUCCUCAACCUCCAAUGCAUCCCACCACAUGAUGAUGCCUGAAGAGCCUUGGUUUUUUG [U30A G52U G60A],-4.07
7,GACCAAUCUGCCCUCAGAGCUCGAGAACACCUUCGGAUGCAGAGGAGGCAGGCUUCGCUGGCGCGAUAGCGCCAACGUCCUCAAGCUCCAAUGCAUCCCACCACAUGAUGAUGCCUGAAGAGCCUUGGUUUUUUG [U30C G58C C85G],-3.06
8,GACCAAUCUGCCCUCAGAGCUCGAGAACACCUUCGGAUGCAGAGGAGGCAGGCUUCGGUGGCGCGAUAGCGCCAACGUCCUCAACCUCCAAUGCAUCCCACCACAUGAUGAUGCCUGAAGAGCUUUGGUUUUUUG [U30C C124U],-1.4
9,GACCAAUCUGCCCUCAGAGCUCGAGAACAACUUCGGAUGCAGAGGAGGCAGGCUUCGGUGGCGCGAUAGCGCCAACGUCCUCAACCUUCAAUGCAUCCCACCACAUGAUGAUGCCUGAAGAGCCUUGGUUUUUUG [U30A C88U],-5.1
10,GACCAAUCUGCCCUCAGAGCUCGAGAACAACUUCGGAUGCAGAGGAGGCAGGCUUCGGUGGCGCGAUAGCGCCAACGUCCUCAACCUCCAAUGCAUCCCACCACAUGAUGAUGCCUGAAGCGCCUUGGUUUUUUG [U30A A121C],-3.22
11,GACCAAUCUGCCCUCAGAGCUCGAGAACAACUUCGGAUGCAGAGGAGGCAGGCUUCGGUGGCGCGAUAGCGGCAACGUCCUCAACCUCCAAUGCAUCCCACCACAUGAUGAUGCCUGAAGAGCCUUGGUUUUUUG [U30A C72G],-6.04
12,GACCAAUCUGCCCUCAGAGCUCGAGAACACCUUCGGAUGCAGAGGAGGCAGGCUUCGGUGGCGCGAUAGCGCCAACGUCCUCAACCUCCAAUGCAUGCCACCACAUGUUGAAGCCUGAAGAGCGUUGGUUUUUUG [U30C C97G A108U U112A C124G],-7.16
13,GACCAAUCUGCCCUCAGAGCUCGAGAACACCUUCGGAUGCAGUGGAGGCAGGCUUUGUUGGCGCGAUAGCGCCAACGUCCUCAACCUCCAAUGCAUCCCACCACAUGAUGAGGCCUGAAGAGCCUUGGUUUUUUG [U30C A43U C56U G58U U112G],-6.19
14,GACCAAUCUGCCCUCAGAGCUCGAGAACACCUUCGGAUGCAGAGGAGGCAGGCUUCGGUAGCGCGAUAGCGCCAACGUCCUCAACCUCCAAUGCAUCCCACCACAUGAUGAUGCCUGAAGAGCCUUGGUUUUUUG [U30C G60A],-1.98
15,GACCAAUCUGCCCUCAGAGCUCGAGAACAACUUCGGAUGCAGAGGAGGCAGGCUUAGGUGGCGCGAUAGCGCCAACGUCCUAAACCACCAAUGCAUCCCACCACAUGAUGAUGGCUGAAGAACCUUGGUUUUUUG [U30A C56A C82A U87A C114G G122A],-6.34
16,GACCAAUCUGCCCUCAGAGCUCGAGAACACCUUCGGAUGCAGAGGAGGCAGGCUUCGGUGGCGCGAUAGCGCCAACGUCCUCAACCUCCAAUGCAUCCCACCACAUGAUGAUGCCUGAAGAGCCUUGGUUUUUUG [U30C],-1.66
17,GACCAAUCUGCCCUCAGAGCUCGAGAACAACUUCGGAUGCAGAGGAGGCAGGCUUCGGUGGCGCGAUAGCGCCAACGUCCUCAACCUCCAAUGCAUCCCACCACAUGAUGAUGCCUGAAGAGCCUUGGUUUUUUG [U30A],-4.65
18,GACCAAUCUGCCCUCAGAGCUCGAGAACAACUUCGGAUGCAGAGGAGGCAGGCUUCGGUGGCGCGAUAGCGCUAACGUCCUCAACCUCCAAUGCAUCCCACCACAUGAUGAUGCCUGAAGAGCCUUGGUUUUUUG [U30A C73U],-5.38
19,GACCAAUCUGCCCUCAGAGCUCGAGAACACCUUCGGAUGCAGAGGAGGUAGGCUUCGGUGGCCCGAUAGCGCCAACAUCCUCAACCUCCAAUGCAUCCCACCACAUGAUGAUGCCUGAAGAGCCUUGGUUUUUUG [U30C C49U G63C G77A],-6.71
20,GACCAAUCUGCCCUCAGAGCUCGAGAACACCUUCGGCUGCAGAGGAGGCAGGCUUCGGUGGCGCGAUAGCGCGAACGUCCUCAACCUCCAAUGCAACCCACCACAUGAUGAUGCUUGAAGAGCCUUGGUUUUUUG [U30C A37C C73G U96A C115U],-5.56
21,GACCAAUCUGCCCUCAGAGCUCGAGAACUUCUUCGGAUGCAGAGGAGGCAGGCUUCGGUGGCGCGAUAGCGCCAACGUCCUCAACCUCCAAUGCAUCCCACCACAUGAUGAAGCCUGAAGAGCCUUGGUUAUUUG [A29U U112A U131A],-1.03

row,Variant,polymerase ribozyme fitness (log ratio)
1,GACCAAUCUGCCCUCAGAGCUCGAGAACAACUUCGGAUGCAGAGGAGGCAGGCUUCGGUGGCGCGAUAGCGCCAACGUCCUCAACCUCCAAUGCAUCCCACCACAAGAUGAUGCCUGAAGAGCGUUGGUUUUUUG [U30A U106A C124G],-2.11
2,GACCAAUCUGCCCUCAGAGCUCGAGAACUUCUUCGGAUGCAGAGGAGGCAGGCUUCGGUGGCGCGAUAGCGCCAACGUCCUCAACCUCCAAUGCAUCCCACCACAUGAUGAGGCCUGAAGAGCCUUGGUUUUUUG [A29U U112G],-0.993
3,GACCAAUCUGCCCUCAGAGCUCGAGAACACCUUCGGAUGCAGAGGAGGCAGGCUUCGGUGGCGCGAUAGCGCCAACGUCCUCAACCUCCAAUGCAUCCCACCACAUGAUGAUGCAUGAAGAGCCUUGGUUUUUUG [U30C C115A],-2.84
4,GACCAAUCUGCCCUCAGAGCUCGAGAACACCUUCGGAUGCAGAGGAGGCAGGCUUAGGUGGCGCGAUAGCGCCAACGUCCUUAACCUCCAAUGUAUCCCACCACAUGAUGAUCCCUGAAGAGCCUUGGUUUUUUG [U30C C56A C82U C94U G113C],-5.15
5,GACCAAUCUGCCCUCAGAGCUCGAGAACAACUUCGGAUGCAGAGGAGGCAGCCUUCGGUGGCGCGAUAGCGCCAACGUCCUCAACCUCCAAUGCAUCCCACCACAUGAUGAUGCCUGAAGAGCCUUGGUUUUUUG [U30A G52C],-5.66
6,GACCAAUCUGCCCUCAGAGCUCGAGAACAACUUCGGAUCCAGAGGAGGAAGGCUUCGGUGGCGCGAUAGCGCCAACGUCCUCAACCUCCAAUGCAUCCCACCACAUGAUGAUGCCUGAAGAGCCUUGGUUUUUUG [U30A G39C C49A],-5.37
7,GACCAAUCUGCCCUCAGAGCUCGAGAACACCUUCGGAUGCAGAGGAGGCAGGCUUCGGUGGCGCGAUAGCGCCAACGUCCUCAACAUCCAAUGCAUCCCACCACAUGAUGAUGCCUGAAGAGCCUUGGUUUUUUC [U30C C86A G135C],-4.17
8,GACCAAUCUGCCCUCAGAGCUCGAGAACACCUUCGGAUGCAGAGGAGGCAGGCUUCGGUGACGCGAUAGCGCCAACGUCCUCAACCUCCAAUGCAUCCCACCACAUGAUGAUGCCUGAAGAGCCUUGGUUUUUUG [U30C G61A],-2.02
9,GACCAAUCUGCCCUCAGAGCUCGAGAACACCUUCGGAUGCAGAGGAGGCAGGCUUGGGUGGCGCGAUAGUGCCAACGUACUCAACCUCUAAUGCAUCUCAACACAUGAUCAUGCCUGAAGAGCCUUGGUUUUUUG [U30C C56G C70U C79A C89U C98U C101A G110C],-6.87
10,GACCAAUCUGCCCUCAGAGCUCGAGAACACCUUCGGAUGCAGAGGAGGGAGGCUUCGGUGGCUCGAUAGUGCCAACGUCCUCACCCUCCAAUGCAUCCCACCACAUGAUGAUGUCUGAAGAGCCUUGGUUUUUUG [U30C C49G G63U C70U A84C C114U],-6.54
11,GACCAAUCUGCCCUCAGAGCUCGAGAACUUCUUCGGAUGCAGAGGAGGCAGGCUUCGGUGGCGCGAUAGCGCCAACGUCCUCAACCUCCAAUGCAUCCCACCACAUGAUGAUGCCUGAAGAGCCUUGGUGUUUUG [A29U U130G],-2.07
12,GACCAAUCUGCCCUCAGAGCUCGAGAACACCUUCGGAUGCAGAGGAGGCAGGCUUGGGUGGCGCGAUAGGGCCAACGUCCUCAACCUCCAAUGCAUCCCACCACAUGAAGAUGCCUGAAGAGCCUUGGUUUUUUG [U30C C56G C70G U109A],-5.1
13,GACCAAUCUGCCCUCAGAGCUCGAGAACACCUUCGGAUGCAGAGGAGGCAGGCUUGGGUUGCGCGAUAGCGCCAACGUCCUCACCCUCCAAUGCAUCCCACCACAUGAUGAUGCCUGAAGAGCCUUGGUUUUUUG [U30C C56G G60U A84C],-3.79
14,GACCAAUCUGCCCUCAGAGCUCGAGAACACCUUCGGAUGCAGAGGAGGCAGGCUUCGGUGGCGCGAUAGUGCCAACGUCCUGAACCUCCAAUGCAUCCCACCACAUGAUGAUGCCUGAAGAGCCUUGGUUUUUUG [U30C C70U C82G],-6.42
15,GACCAAUCUGCCCUCAGAGCUCGAGAACAACUUCGGAUGCAGAGGAGGCAGGCUUCGGUGGCGCGAUAGCGCCAACGUCCUCAACCUCCAAUGCAUCCCACCACAUGAUGAUGCCUGUAGAGCCUUGGUUUUUUG [U30A A118U],-5.54
16,GACCAAUCUGCCCUCAGAGCUCGAGAACACCUUCGCAUGCAGAGGAGGCAGGCUUCGGUGGCGCGAUAGGGCCAACGCCCUCACCCUCCAAUGCAUCCCACCACAUGAUGAGGCCUGAAGAGCCUUGGUUUUUUG [U30C G36C C70G U78C A84C U112G],-6.17
17,GACCAAUCUGCCCUCAGAGCUCGAGAACAACUUCGGAUGCAGAGGAGGCAGGCUUCGGUGGCGCGAUAGCUCCAACGUCCUCAACCUCCAAUGCAUCCCACCACAUGAUGAUGCCUGAAGAGCCUUGGUUUUUUG [U30A G71U],-4.91
18,GACCAAUCUGCCCUCAGAGCUCGAGAACACCUUCGGAUGCAGAGGAGGCAGGCUUCGGUGGCGGGAUAGCGCCAACGUCCUCAACCUCCAAUGCAUCCGACCACAUGAUGAUGCCUGAAGAGGCUUGGUUUUUUG [U30C C64G C99G C123G],-7.65
19,GACCAAUCUGCCCUCAGAGCUCGAGAACAACUUCGGAUCCAGAGGAGGCAGGCUUCGGUGGCGCGAUAGCGCCAACGUCCUCAACCUCCAAUGCAUCCCACCACAUGAUGAUGCCUGAAGAGCCUUGGUUUUUUG [U30A G39C],-5.36
20,GACCAAUCUGCCCUCAGAGCUCGAGAACAACUUCGGAUGCAGAGGAGGCAGGCUUCGGUGGCGCGAUAGCGCCAACGUCCUCAACCUCCAAUGCGUCCCACCACAUGAUGAUGCCUGAAGUGCCUUGGUUUUUUG [U30A A95G A121U],-3.78
21,GACCAAUCUGCCCUCAGAGCUCGAGAACACCUUCGGAUGCAGAGGAGGCAGGCUUCGGUGGCGCGAUAGCGCUAACGUCCUCAACCUCCAAUGCAUCCCACCACAUGAUGAUGCCUGAAGAGCCUUGGUUUUUUG [U30C C73U],-2.48
